From the nanobody polyreactivity screen of Harvey et al. (2022)

test: yeast display, Sf9 membrane polyspecificity reagent, FACS + sequencing; frameworks hold sequencing errors
Outline: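 A synthetic nanobody library was expressed on Saccharomyces cerevisiae BJ5465 by galactose induction for 36–48 hours. The library was stained for 1 hour at 4 °C with 10% biotinylated, detergent-solubilized Sf9 membrane reagent and enriched with streptavidin microbeads before FACS. Low and high (top ~1%) gates were set on anti-HA fluorescence for expression and streptavidin fluorescence for reagent binding, and each polyreactivity label reflects the gate of origin.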

Question: With “QVHLVESGGGLVQAGGSLRLSCAASGFTFRFYAMGCYIQAPGKERELVAAISSTGIRTYYADSLKGRFTISRDNSKNTDYLQMNSLKPEDTAVYYCAKLHRDSILDYWGQGTQVTVSS” as the sequence, how does the “polyreactivity (PSR sort gate)” value read?
Answer: high polyreactivity

Question: For “QVQLVESGGGLVQAGGSLRLSCAASGRNFRHYAMGWDRQAPGKERELVAAIRWSGGSTYYADSVKGRFTISRDNAKNTVYLQMNSLKPEETAVYYCATRDAVGHRPSGPYQLYDYWGQGTQVTVSS”, which “polyreactivity (PSR sort gate)” value is on record?
Answer: low polyreactivity

Question: Which “polyreactivity (PSR sort gate)” value does the source give for “QVHLVESGGGLVQAGGSLRLSCSAYGSIFAYYAMGWYRQAPGKERELVAAIRSSGGSTYYADSVKGRFTISRDNANNTVYLQMNSLKPEVTAVYYCNVASRRIGPYVYWGQGTQVTVSS” here?
Answer: high polyreactivity

Question: With “QVQLVESGGGLVQAGGSLRLSCAASGRTFYSYAMGWYRQAPGKERELVAAITWRASTYYADSVKGRFTISRDNAKNTVYLQMNSLKPEDTAVYYCAVRDYRPRYYTFLYNSPYDYWGQGTQVTVSS” as the sequence, how does the “polyreactivity (PSR sort gate)” value read?
Answer: high polyreactivity

Question: Which “polyreactivity (PSR sort gate)” value does the source give for “QVQLVESGGGLGQAGGSLRLSCTASGRIFPYYAMGWYRQAPGKERELVAALSGRGGRTYYADSVKGRFTISRDNAKNTVYLQMNSLNPEDTAVYYCNARVQAVHYGYWGQGTQVTVSS” here?
Answer: high polyreactivity

Question: Which “polyreactivity (PSR sort gate)” value does the source give for “QVQLVESGGGLVQAGGSLRLSCAASGRTFWVNAMGWYRQAPGKERELVAAITSSVSSTYYADSVKGRFTISRDNAKNTVYLQMNSLKPEDTAVYYCAAGVGRGMYYWGQGTQVTVSS” here?
Answer: low polyreactivity

Question: With “QVQLVESGGGLVQAGGSLRLSCAASGFTFAYDAMGWYRQAPGKERELVAAIRRRGGITYYADSVKGRFTISRDNAKNTVYLQMNSLKPEDTAVYYWNAVRSYPAGYDSWGQGTQVTVSS” as the sequence, how does the “polyreactivity (PSR sort gate)” value read?
Answer: low polyreactivity

Question: Which “polyreactivity (PSR sort gate)” value does the source give for “QVQLVESGGGLVQAGGSLRLRCAASGSNFDTYAMGWYRQAPGKERELDAAINSGGGTNYADSVKGRFTISRDNANNTVYLQMNSLKPEDTAVYYCATDIRREAGGGDFDYWGQATQVTVSS” here?
Answer: low polyreactivity

Question: With “QVQLVESGGGLVQAGGSLRLSCAASGFTFWLYSMGWYRQAPGKERELVAAISWSGGSTYYADSVKGRFTISRDNAKNTVYFQMNSMKPEDPAVYYCAAVKYVRCAEFYYWGQGTQVTVSS” as the sequence, how does the “polyreactivity (PSR sort gate)” value read?
Answer: high polyreactivity

Question: With “QVQLVESGGGLVQAGGSLRLSCAASGLIFGRNAMGWYRQAPGKERELVAAISWSGGSTYYADSVKGRFTISRDNAKNTVYLEMKSLKPEDTAVYYCYRYRYYGSEDDYWGQCTQVTVSS” as the sequence, how does the “polyreactivity (PSR sort gate)” value read?
Answer: high polyreactivity

Question: For “QDQLVESGGGLVQAGGSLRLSCAASGLIFYGYVMGWYRQAPGKERELVAGISRNSGSTYYADSVKGRFTISRDNAKNTVYLQMNSLKPEDTAVYYCAALKFEAWAGEDYWGQGTQVTVSS”, which “polyreactivity (PSR sort gate)” value is on record?
Answer: low polyreactivity

Question: For “QVQLVESGGGLVQAGGSLRLSCAASGSTYVYYAMGWYRQAPGKERELVAAISSSGGSTYYADSVKGRFTISRDNAKNTVYLQMNILKPEDTAVYYCNRYSSYIPYPYNYWGQGTQVTVSS”, which “polyreactivity (PSR sort gate)” value is on record?
Answer: high polyreactivity

Question: For “QVQLLESGGGLVQSGGILRLSCAASGRNFGRYAMGLYRQAPGKERELLATITWRGGITYYADSVKGRFTISRDNAMNTVSLQMNSLKPEDSAVYYCAAGYGRIPYVYWGKGTQVTVSS”, which “polyreactivity (PSR sort gate)” value is on record?
Answer: high polyreactivity

Question: For “QVQLVESGGGLVQAGGSLRLSCAASGRTFTPYAMGWYRQAPGKERELVAAISIGGPTNYADSVKGRFTISRDNAKNTVYLQMNSLKPEDTADYYCAADSYYLGRDGFGFYAYTYDYWGQGTEVTVSS”, which “polyreactivity (PSR sort gate)” value is on record?
Answer: low polyreactivity

Question: With “QVQLVESGGGLVQAGGSLRLSCAASGSIFSFYAMGWYRQAPGKERELVAAISSSGGSTYYADSVKGRFTISRDNAKNTVYLKMNSLKPEDTAVYYCAARFAYGGGYWGQGTQVTVSS” as the sequence, how does the “polyreactivity (PSR sort gate)” value read?
Answer: high polyreactivity

Question: With “QVQLVESGGGLVQAGGSLRLSCAASGRIFGIYAMGGSRQAPGKERELVASITDGTITYYADSVKGRFTISRDNAKNTVYLQMNSLKPEDTAVYYCAAGTQAHAYVVRPIEMDYWGQGTQVTVSS” as the sequence, how does the “polyreactivity (PSR sort gate)” value read?
Answer: low polyreactivity

Question: For “QVQLVESGGGLVQAGGSLRLSCAASGRIFRPYAMGWYRQAPGKEREFVAAITQSGGITSYADSVKGRFTISRDNAKNTVYLQMNRLKPEDTAVYFCATTSRYTRSHYDWYDYWGQGTQVTVSS”, which “polyreactivity (PSR sort gate)” value is on record?
Answer: low polyreactivity

Question: For “QVQLVESGGGLVQAGGSLRLSCAASGNTFGRNAMGWYIQAPGKERELVAAIDIGADTNYADSVKGRFTISRDNAKNTVYLQMNSLKPEDTAVYYCAASYRYVRWKWGYNYWGQGTQVTVSS”, which “polyreactivity (PSR sort gate)” value is on record?
Answer: high polyreactivity

Question: With “QVQLVESGGGLVQAGGSLRLSCAASGSTLERNAMGWYRQAPGKERELVAAITSSTGSTYYADSVKGRFTISRDNAKNTVYLQMNSLKPEDTAVYYFAKRVASVQSNRHDYWGQGTQVTVSS” as the sequence, how does the “polyreactivity (PSR sort gate)” value read?
Answer: high polyreactivity

Question: With “QVQLVESGGGLVQAGGSLRLSCAASGFIFRGYAMGWYRQAPGKERELVAAISRRGGSTYYADSVKGRFTISRHNAKNTVYLLMNSLKPEDTAVYYCNADTTQQGNVRVGYWGQGTQVTVSS” as the sequence, how does the “polyreactivity (PSR sort gate)” value read?
Answer: high polyreactivity

Question: With “QVQLVESGGGLVQAGGSLRLSCAASGRIFRVNTMGWYRQSPGKERELVAAIRSSGTRTYYADSVKGRFTISRDNAKNTVYLQMNSLKPEDTAVYYCAATGRRGSGYYYWGQGTQVTVSS” as the sequence, how does the “polyreactivity (PSR sort gate)” value read?
Answer: high polyreactivity

Question: For “QGPHVESGGGLVQAGGSLRLSCAASGSTFYNYAMGWYIQAPGKEREFVATISFSGGSTYYADSVKGRFTISRDNAKNTVYLQMNSLKPEETAVYYCAARALTRKATGYYLTDYWGQGTQVTVSS”, which “polyreactivity (PSR sort gate)” value is on record?
Answer: high polyreactivity

Question: For “QVQLVESGGGLVQAGGSLRLSCAASGFISKYYAMGWYRQAPGKERELVASISRDGSTSYADSVKGRFTISRDNAKNTVYLQMNSLKPEDTAVYYCAAPSYRTRYYYWGQGTQVTVSS”, which “polyreactivity (PSR sort gate)” value is on record?
Answer: high polyreactivity

Question: With “QVQLVESGGGLVQAGGSLRLSCAASGLTFGNYAMGWYRQTPGKERELVAAISKRGGTTYYADSVKGRFTISRDTAKNTVYLQMNSLKPEDTAVYYCSARDYSHPTDDNYWGPGTQVTVSS” as the sequence, how does the “polyreactivity (PSR sort gate)” value read?
Answer: high polyreactivity

Question: With “QVQLVESGGGLVQAGGSLRLSCAASGLIFWHYAMGWYRQAPGKERELVARISYGGGSTYYADSVKGRFTISRDNAKNTVYLQMNSLKPEDTAVYYCNAKYYSVSQYWYNYWGQGTQVTVSS” as the sequence, how does the “polyreactivity (PSR sort gate)” value read?
Answer: high polyreactivity

Question: With “QVQLVESGGGLVQAGGSLRLSCAASGSIFLYNTKGWYRQAPGKERELVAAISFSGVTTYYADSVKGRFTISRDNAKNTVYLQMNSLKPEDTAVYYCNKYLWKFTNSPLGDYYWGQGTQVTVSS” as the sequence, how does the “polyreactivity (PSR sort gate)” value read?
Answer: high polyreactivity

Question: With “QVQLVESGGGLVQAGGSLRLSCAASGRTSSIYTMGWYRQAPGKERELVAAIRGRGGNTYYADSVKGRFTISRDYAKNTVYLLMNSLKPEDTAVYYCNAKPQGVGLYRYEYWGQGTQVTVSS” as the sequence, how does the “polyreactivity (PSR sort gate)” value read?
Answer: high polyreactivity

Question: Which “polyreactivity (PSR sort gate)” value does the source give for “QVQLVESGGGLVQAGGSLRLSFAASGIIFGWYAVGWYRQAHGKDRELVAAINIGGSTNYADSVKGRFTISRYNAKNTVYLQMNSLKPEDTADYYCNARTPGYRYGRDYWGQGTQVTVSS” here?
Answer: high polyreactivity

Question: Which “polyreactivity (PSR sort gate)” value does the source give for “QVQLVESGGGLVQAGGSLRLSCAASGSIFRYNAMGWYRKAPGKEREFVAIISYSGVRTYYADSVKGRFTISRDNAKNTVYLQMNSLKPEDTAVYYCAADFKQKGHRTRTTYWGQGTKVTVSS” here?
Answer: high polyreactivity

Question: With “QVQLVESGGGLVQAGGSHRLSCAASGFTFIGYPMGWYRQAPGKERELVAAITQSGGSTFYADSVKGRFTISRDNAKNTVYLHMNSLKPEDTAVYYCNAYRKFRYWGHGTQVTVSS” as the sequence, how does the “polyreactivity (PSR sort gate)” value read?
Answer: low polyreactivity

Question: With “QVQLHESGGGLVQAGGSLRRSCAASGTISYAGPMGWYRQAPGKEREFVAGIGVGSNTNYADSVKGRYTIIRDNAKNTVYLQMNSLKPEDTAVYYCAVGGYAPLGRPYWGQGTQVTVSS” as the sequence, how does the “polyreactivity (PSR sort gate)” value read?
Answer: low polyreactivity

Question: Which “polyreactivity (PSR sort gate)” value does the source give for “QVQLVESGGGLVQAGGSLRLSCAASGRTFSYYAMGWYRQAAGKERELVAAISRAGRTNYADSVKGRFTISRDNAKNTVYLQMNSLKPEDTAVYYCAATGWLRIDRPYTYTYCYWGQGTQVTVSS” here?
Answer: high polyreactivity

Question: For “QVQLVESGGGLVQAGGSLRLSCAASGITFYYYAMGWYRQAPGKERELVAAISFRGGSTYYADSVKGRFTISRDNAKNTVYLQMNSLKPEDTAVYYCAKAWSYTDPPRGDYWGQGTQVTVSS”, which “polyreactivity (PSR sort gate)” value is on record?
Answer: high polyreactivity

Question: Which “polyreactivity (PSR sort gate)” value does the source give for “QVQLVESGGGLVQAGGSLRLSCAASGYTFPSYAMGWYRQAPGKERELVAVITIGGTYYADSVKGRFTISRDNAKNTVYLQMNSLKPEDTAVYYCAADWAWDYYRGFDYWGQGTQVTVSS” here?
Answer: low polyreactivity

Question: With “QVQLVESGGGLVQAGGSLRLSCAASGFIFDTYAMGWYRQAPGKERELVATINDRGDSTSYADSVKGRFTISRDNAKNTVYLQMNSLKPEDTAVYYCARTWGLRYRWSYGRSRYNYWGQGTQVTVSS” as the sequence, how does the “polyreactivity (PSR sort gate)” value read?
Answer: low polyreactivity

Question: With “QVQLVESGGGLVQAGGSLRLSCAASGFTCPYYMGWYRQAPGKERELVADISWSDGSTYYADSVKGRFTISRDNAKNTVSLQMNSLKPEDTAVYYCAADYVSSWFYLPEYDYWGQGTQVTVSS” as the sequence, how does the “polyreactivity (PSR sort gate)” value read?
Answer: high polyreactivity

Question: For “QVHLVESGGGLVQARGSLRLSCAASGRIFRYYVMGWYRQAPGIERELVAAITSGTSTNYADSVKGRFTISRDNAKNTVYLQMTSLKPEDTAVYYCAVRSPRGGRTRFNSNYWGQGTQVTVSS”, which “polyreactivity (PSR sort gate)” value is on record?
Answer: high polyreactivity

Question: Which “polyreactivity (PSR sort gate)” value does the source give for “QDQLVESGGGLVQAGGSLRLSCAASGIIFGAYAMGWYRQAPGKERELVAAISQSGGSTYYADSVKGRFTISRDNAKITVYLQMNSLKPEDTAVYYCNVDPDVILVTSYDYWGQGTQVTVSS” here?
Answer: low polyreactivity

Question: Which “polyreactivity (PSR sort gate)” value does the source give for “QVQLVESGGGLVQAGGSLRLSCAASGRTFYPNAMGWSRQAPGKERELVAAINSGGSTYYADSVKGRFTISRDNAKNTVYLQMNSLKPEDTAVYYCNAERRIAYEYWGQGTQVTVSS” here?
Answer: low polyreactivity

Question: Which “polyreactivity (PSR sort gate)” value does the source give for “QVQLVESGGGLVQAGGSLRLSCAAYGYTLYHNAMGWYRQAPGKERELVAAITSSGGRTYYADSVKGRFTISRDNAKNTVYLQMNRLKPDDTAVYYCNAVVWVYSISLSYTGTKYEYWGQGTQVTVSS” here?
Answer: high polyreactivity

Question: For “QVQLVESGGGLVQAGGSLRLSCAASGSIFSQYVMGWYRQAPGNERELVAAIVWSSGSTYYADSVKGRFTMSRDNAKNTVYLQMNSLKPEDTAVYYCAARTKAFKPGYGYWGQGTQVTVSS”, which “polyreactivity (PSR sort gate)” value is on record?
Answer: low polyreactivity

Question: Which “polyreactivity (PSR sort gate)” value does the source give for “QVQLVESGGGLVQAGGSLRLSCAASGSIFSSNAMGWYRQAPGKERELVAAITRGGRTTYADSVKGRFTISRDNAKKTVYLQMNSLKPEDTAVYYCNAESYLTGWWVDYWGQGTQVTVSS” here?
Answer: low polyreactivity

Question: Which “polyreactivity (PSR sort gate)” value does the source give for “QVQLVESGGGLVQAGGSLRLSCAASGRTFGTNTKGWSRQAPGKERELVAAISSRGGTTYYADSVKGRFTISRDNAKNTVYLQMYSLKPEDTAVYYCNRARSSSRYDYWGQGTQVTVSS” here?
Answer: low polyreactivity
